According to publication PMC3000793:

Molecular target: ASIC3-YFP (UniProt O35240)
Test: FRET or BRET

Chain of UniProt O35240 (O35240 whole entry): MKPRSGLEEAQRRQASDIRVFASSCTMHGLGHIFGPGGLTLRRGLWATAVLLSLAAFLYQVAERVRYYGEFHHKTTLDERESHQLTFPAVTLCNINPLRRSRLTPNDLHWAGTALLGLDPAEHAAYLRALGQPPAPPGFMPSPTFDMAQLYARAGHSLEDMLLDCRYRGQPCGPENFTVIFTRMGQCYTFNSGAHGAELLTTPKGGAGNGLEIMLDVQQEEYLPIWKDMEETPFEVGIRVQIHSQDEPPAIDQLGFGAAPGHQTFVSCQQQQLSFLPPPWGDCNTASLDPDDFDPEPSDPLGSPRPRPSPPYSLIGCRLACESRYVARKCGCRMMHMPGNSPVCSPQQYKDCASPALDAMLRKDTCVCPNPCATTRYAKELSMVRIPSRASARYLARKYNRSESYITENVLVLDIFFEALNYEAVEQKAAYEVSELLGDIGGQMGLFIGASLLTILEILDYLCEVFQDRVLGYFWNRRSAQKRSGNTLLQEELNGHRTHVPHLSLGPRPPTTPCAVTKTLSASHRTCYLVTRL

Substance: P2X5-CFP (from UniProt P51578 1-455) (receptor)
- FRET signal (donor dequenching): 20%
